Experimental data as given in patent US20040077526A1.

Key:
[1] = biological target: murine SR-BI (mSR-BI), class B type I scavenger receptor (murine) (UniProt Q61009); test: self-competition: unlabeled HDL (500 µg protein/ml) against [125I,3H]hHDL3 (10 µg protein/ml) on Y1-BS1 cells
[2] = biological target: murine SR-BI (mSR-BI), class B type I scavenger receptor (murine) (UniProt Q61009); test: cell association of 125I-HDL with ldlA[mSR-BI] cells at 37 C
[3] = biological target: murine SR-BI (mSR-BI), class B type I scavenger receptor (murine) (UniProt Q61009); test: time course of cell association of 125I-HDL with ldlA[mSR-BI] cells at 37 C

Chain of UniProt Q61009 (Q61009 whole entry): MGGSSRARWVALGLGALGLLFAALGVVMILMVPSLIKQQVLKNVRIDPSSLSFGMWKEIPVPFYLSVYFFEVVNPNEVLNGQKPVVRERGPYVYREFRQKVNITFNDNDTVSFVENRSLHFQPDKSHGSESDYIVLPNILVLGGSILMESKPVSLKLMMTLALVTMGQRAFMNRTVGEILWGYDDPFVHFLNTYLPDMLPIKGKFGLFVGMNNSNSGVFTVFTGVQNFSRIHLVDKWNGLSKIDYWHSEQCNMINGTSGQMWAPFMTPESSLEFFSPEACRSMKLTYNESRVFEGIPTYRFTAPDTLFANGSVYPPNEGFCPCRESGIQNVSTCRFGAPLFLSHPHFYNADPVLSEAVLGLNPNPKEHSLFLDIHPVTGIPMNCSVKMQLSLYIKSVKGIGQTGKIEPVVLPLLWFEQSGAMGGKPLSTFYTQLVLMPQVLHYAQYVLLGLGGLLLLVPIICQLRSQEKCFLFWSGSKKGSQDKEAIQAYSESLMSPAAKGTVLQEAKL

Substance “human HDL3 (hHDL3, 1.125-1.210 g/ml) labeled with [125I]dilactitol tyramine and [3H]cholesteryl oleolyl ether” has a reduction of cell association of HDL [1] of 85%.

“human HDL (high density lipoprotein prepared from human plasma by zonal centrifugation) (from UniProt P02647 25-267; P02652 24-100)” gave a fraction of the total label bound to the transfected cells in 5 hours [2] of under 0.5% and a cell-associated 125I-HDL at steady state (ng protein/mg cell protein) [3] of 200.
